Laboratory results as given in US20210388084A1.

Columns and labels:
[1] = target: membrane-bound full-length human CD89 (human) (UniProt P24071); test: FACS, HEK293F-huCD89, unlabeled Ab 10 ug/mL first; competitor A3-PE
[2] = target: membrane-bound full-length human CD89 (human) (UniProt P24071); test: FACS, HEK293F-huCD89, 24 h 37C no NaN3, IgA then Ab 10 ug/mL; pre-bound non-aggr serum IgA
[3] = target: membrane-bound full-length human CD89 (human) (UniProt P24071); test: FACS, HEK293F-huCD89, 4C +NaN3, IgA then Ab 10 ug/mL; pre-bound non-aggr serum IgA
[4] = target: membrane-bound full-length human CD89 (human) (UniProt P24071); test: FACS, HEK293F-huCD89, 4C +NaN3, Ab 10 ug/mL then IgA; competitor non-aggr serum IgA
[5] = target: membrane-bound full-length human CD89 (human) (UniProt P24071); test: FACS, HEK293F-huCD89, 24 h 37C no NaN3, IgA then Ab 10 ug/mL; pre-bound heat-aggr serum IgA
[6] = target: membrane-bound full-length human CD89 (human) (UniProt P24071); test: FACS, HEK293F-huCD89, 24 h 37C no NaN3, Ab 10 ug/mL then IgA; competitor heat-aggr serum IgA
[7] = target: membrane-bound full-length human CD89 (human) (UniProt P24071); test: FACS, HEK293F-huCD89, 4C +NaN3, IgA then Ab 10 ug/mL; pre-bound heat-aggr serum IgA
[8] = target: membrane-bound full-length human CD89 (human) (UniProt P24071); test: FACS, HEK293F-huCD89, unlabeled Ab 10 ug/mL first; competitor A59-PE
[9] = target: membrane-bound full-length human CD89 (human) (UniProt P24071); test: FACS, HEK293F-huCD89, unlabeled Ab 10 ug/mL first; competitor MIP8a-PE
[10] = target: membrane-bound full-length human CD89 (human) (UniProt P24071); test: FACS, HEK293F-huCD89, 4C +NaN3, Ab 10 ug/mL then IgA; competitor heat-aggr serum IgA
[11] = target: membrane-bound full-length human CD89 (human) (UniProt P24071); test: FACS, HEK293F-huCD89, 24 h 37C no NaN3, Ab 10 ug/mL then IgA; competitor non-aggr serum IgA
[12] = target: membrane-bound full-length human CD89 (human) (UniProt P24071); test: FACS, HEK293F-huCD89 (Example 7 (b)); competitor heat-aggr serum IgA
[13] = target: membrane-bound full-length human CD89 (human) (UniProt P24071); test: FACS, HEK293F-huCD89, titrated Ab; competitor non-aggr serum IgA
[14] = target: membrane-bound full-length human CD89 (human) (UniProt P24071); test: FACS, HEK293F-huCD89 (Example 7 (b)); competitor non-aggr serum IgA
[15] = target: membrane-bound full-length human CD89 (human) (UniProt P24071); test: FACS, HEK293F-huCD89, titrated Ab; competitor heat-aggr serum IgA

% blocking of A3-PE binding [1]	percent IgA binding (remaining) [2]	percent IgA binding [3]	percent IgA binding [4]	percent IgA binding (remaining) [5]	percent IgA binding (remaining) [6]	percent IgA binding [7]	% blocking of A59-PE binding [8]	% blocking of MIP8a-PE binding [9]	percent IgA binding [10]	percent IgA binding (remaining) [11]	maximum inhibition of IgA binding [12]	% blocking of IgA binding [4]	maximum inhibition of IgA binding [13]	maximum inhibition of IgA binding [14]	maximum inhibition of IgA binding [15]	% blocking of IgA binding [10]	Substance
55%	0 to 25%	0 to 25%	0 to 25%	0 to 25%	0 to 25%	0 to 25%	50%	> 90%	0 to 25%	0 to 25%	–	–	–	–	–	–	mouse anti-human CD89 antibody clone MIP8a (BioRad)
> 90%	–	76 to 125%	26 to 50%	76 to 125%	76 to 125%	76 to 125%	> 90%	< 25%	26 to 50%	26 to 50%	60%	60%	60%	60%	60%	60%	mouse anti-human CD89 antibody clone A3 (Santa Cruz Biotechnology)
–	76 to 125%	76 to 125%	76 to 125%	76 to 125%	76 to 125%	76 to 125%	–	–	76 to 125%	76 to 125%	–	–	–	–	–	–	purified mouse IgG1 isotype control (antibody)
> 90%	26 to 50%	76 to 125%	26 to 50%	76 to 125%	76 to 125%	76 to 125%	> 90%	< 25%	26 to 50%	26 to 50%	60%	60%	60%	60%	60%	60%	mouse anti-human CD89 antibody clone A59 (BD Biosciences)
